Data published in patent US12246067 (BIONTECH US, dated 2025).

Experiments:
HLA-A02:01 [1] = target: T1, HLA-A02:01 (human); assay: measured peptide-HLA affinity; method not detailed
T1 construct: only the allele is given; also called HLA-A02:01 allele protein

HLA-A02:01 [2] = target: T1, HLA-A02:01; assay: measured peptide-HLA complex stability; method not detailed
HLA-A03.01 = target: T2, HLA-A03.01 (human); assay: peptide-HLA class I complex stability, method not described
T2 construct: The assay format and the HLA construct are not described

HLA-A11.01 = target: T3, HLA-A11.01 (human); assay: as above
T3 construct: The assay format and the HLA construct are not described

B1: KRAS G12C affinity-enhanced peptide FLVVVGACGV (peptide)
peptide: FLVVVGACGV
Measured Affinity (HLA-A02:01 [1]): 4.2 nM
Measured stability (HLA-A02:01 [2]): 7.4 h

B2: KRAS G12C affinity-enhanced peptide MLVVVGACGV (peptide)
peptide: MLVVVGACGV
Measured Affinity (HLA-A02:01 [1]): 18.2 nM
Measured stability (HLA-A02:01 [2]): 1.7 h

B3: KRAS G12C affinity-enhanced peptide FMVVVGACGV (peptide)
peptide: FMVVVGACGV
Measured Affinity (HLA-A02:01 [1]): 1.1 nM
Measured stability (HLA-A02:01 [2]): 5.4 h

B4: KRAS G12C affinity-enhanced peptide FMVVVGACGL (peptide)
peptide: FMVVVGACGL
Measured Affinity (HLA-A02:01 [1]): 85.3 nM
Measured stability (HLA-A02:01 [2]): 0.9 h

B5: KRAS G12C affinity-enhanced peptide MMVVVGACGV (peptide)
peptide: MMVVVGACGV
Measured Affinity (HLA-A02:01 [1]): 18.9 nM
Measured stability (HLA-A02:01 [2]): 2.1 h

B6: KRAS G12C affinity-enhanced peptide YLVVVGACGV (peptide)
peptide: YLVVVGACGV
Measured Affinity (HLA-A02:01 [1]): 3.9 nM
Measured stability (HLA-A02:01 [2]): 9.3 h

B7: KRAS G12C affinity-enhanced peptide KMVVVGACGV (peptide)
peptide: KMVVVGACGV
Measured Affinity (HLA-A02:01 [1]): 11.9 nM
Measured stability (HLA-A02:01 [2]): 3.8 h

B8: KRAS G12C affinity-enhanced peptide FLVVVGACGI (peptide)
peptide: FLVVVGACGI
Measured Affinity (HLA-A02:01 [1]): 27.8 nM
Measured stability (HLA-A02:01 [2]): 1.4 h

B9: KRAS G12C affinity-enhanced peptide YMVVVGACGV (peptide)
peptide: YMVVVGACGV
Measured Affinity (HLA-A02:01 [1]): 7 nM
Measured stability (HLA-A02:01 [2]): 6.4 h

B10: KRAS G12C affinity-enhanced peptide FMVVVGACGI (peptide)
peptide: FMVVVGACGI
Measured Affinity (HLA-A02:01 [1]): 17 nM
Measured stability (HLA-A02:01 [2]): 1 h

B11: KRAS G12C affinity-enhanced peptide FLVVVGACGL (peptide)
peptide: FLVVVGACGL
Measured Affinity (HLA-A02:01 [1]): 69.4 nM
Measured stability (HLA-A02:01 [2]): 1.4 h

B12: KRAS, G12D peptide VVVGADGVGK (peptide)
peptide: VVVGADGVGK
Measured stability (HLA-A03.01): 2.3 h
Measured stability (HLA-A11.01): 13 h

B13: KRAS, G12V peptide VVVGAVGVGK (peptide)
peptide: VVVGAVGVGK
Measured stability (HLA-A03.01): 6.7 h
Measured stability (HLA-A11.01): 24.3 h

B14: KRAS, G12C peptide VVGACGVGK (peptide)
peptide: VVGACGVGK
Measured stability (HLA-A03.01): 5 h
Measured stability (HLA-A11.01): 10 h

B15: KRAS, G12D peptide VVGADGVGK (peptide)
peptide: VVGADGVGK
Measured stability (HLA-A11.01): 3.4 h
